The supplement of paper PMC10567573

B1: ACBD3 (parent)
chain: YVASHKIEKEEQEKKRKEEEERRR

Variants of: B1
Experiment: protein stability index of a GFP-peptide fusion (GPS, HEK-293T) (PSI 1-6); higher = more stable
Details: c terminus: a fixed tail appended
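Note: lentivirally expressed fusions sorted by FACS into six bins by GFP to DsRed ratio, PSI derived from sequencing read proportions per bin multiplied by bin number.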

Protein stability index, by site and new letter:
H5: Y 2.42 | Q 2.7 | I 3.02 | S 3.07 | L 2.82 | N 2.4 | G 1.92 | R 2.46 | P 3.08 | W 2 | E 4.24 | M 2.5 | F 2.24 | A 3.1 | K 2.61 | T 3 | D 4.25 | V 3.05
K6: D 4.14 | V 2.95 | C 2.98 | I 2.66 | M 3.21 | E 3.67 | S 2.77 | Q 3.76 | P 2.67 | F 2.79 | H 3.21 | G 2.96 | L 2.66 | T 2.88 | Y 2.12 | N 2.7 | R 2.74
Y1: L 5.56 | S 5.5 | P 5.43 | C 4.93 | W 5.65 | G 4.73 | T 5.43 | R 5.49 | K 5.87 | Q 5.5 | H 5.57 | F 2.11 | N 5.77 | M 5.6 | E 5.83 | D 5.55 | A 5.78 | V 5.68 | I 5
K9: I 2.29 | L 3.07 | D 3.61 | G 2.5 | S 2.78 | N 3.19 | A 3.03 | W 1.86 | F 2.72 | V 2 | R 1.84 | T 2.42 | M 2.8 | Q 3.22 | E 3.42 | C 2.5 | Y 2.28
V2: T 5.24 | L 5.22 | W 4.93 | C 4.4 | I 4.51 | D 5.36 | Y 4.75 | R 5.49 | H 4.14 | G 5.36 | A 4.73 | Q 4.57 | K 5.05 | M 5.36 | S 5.25 | P 5.11 | E 5.85 | N 5.04 | F 5.16
E10: K 2.46 | L 2.95 | V 2.46 | Q 1.88 | M 2.42 | G 1.9 | I 2.1 | D 2.42 | Y 2.08 | S 3.11 | R 1.87 | C 2.19 | P 1.78 | F 1.76 | H 1.66 | A 1.55 | T 2.08 | N 2.79
I7: F 2.53 | D 3.86 | L 2.37 | G 3.13 | S 3.22 | A 3.29 | T 3.09 | P 3.35 | Q 2.25 | V 2.43 | K 2.89 | H 3.1 | W 1.81 | C 3.86 | M 2.56 | Y 2.36 | R 2.67 | E 2.89
E11: L 2.13 | Q 2.79 | I 2.24 | C 2.55 | F 3.47 | A 3.79 | D 2.75 | M 2.2 | P 1.76 | K 1.71 | R 1.93 | G 2.34 | H 3.12
S4: R 2.57 | Q 3.14 | D 3.95 | A 2.9 | Y 2.49 | V 3.28 | M 2.1 | H 2.62 | C 2.81 | N 2.16 | T 2.74 | G 2.39 | L 2.67 | E 3.05 | F 2.07 | K 3.67 | P 3.8 | W 1.49
E8: S 2.83 | Q 2.14 | F 1.12 | K 2.57 | V 2.1 | C 2.42 | A 2.23 | N 2.36 | M 1.75 | L 2.33
